# Experimental data published in patent publication US20200199241A1 (Chugai, published 2020).
# Substitutions are numbered along the chain they refer to. In names and notes the source's numbering stands.
# B1: IgG1-F360 (antibody)
# heavy: QVQLQESGPGLVKPSETLSLTCAVSGHSISHDHAWSWVRQPPGEGLEWIGFISYSGITNYNPSLQGRVTISRDNSKNTLYLQMNSLRAEDTAVYYCARSLARTTAMDYWGEGTLVTVSSASTKGPSVFPLAPSSKSTSGGTAALGCLVKDYFPEPVTVSWNSGALTSGVHTFPAVLQSSGLYSLSSVVTVPSSSLGTQTYICNVNHKPSNTKVDKKVEPKSCDKTHTCPPCPAPELLGGPSVFLFPPKPKDTLMISRTVEVTCVVVDVSHEDPEVKFNWYVDGVEVHNAKTKPREEQYNSTYRVVSVLQVLHQDWLNGKEYKCKVSNKALPAPIEKTISKAKGQPREPQVYTLPPSRDELTKNQVSLTCLVKGFYPSDIAVEWESNGQPENNYKTTPPVLDSDGSFFLYSKLTVDKSRWQQGNVFSCSVVHEALHYHYTQKSLSLSP
# light: not shown
# notes: EU numbering; copies: 2 + 2
# B2: IgG1-F362 (antibody)
# heavy: B1 heavy with N327G, V430L
# light: not shown
# notes: EU numbering; copies: 2 + 2
# B3: IgG1-F363 (antibody)
# heavy: B1 heavy with Q313A, V430L
# light: not shown
# notes: EU numbering; copies: 2 + 2
# B4: IgG1-F364 (antibody)
# heavy: B1 heavy with Q313A, N327G, V430L
# light: not shown
# notes: EU numbering; copies: 2 + 2
# B5: IgG1-F365 (antibody)
# heavy: B1 heavy with V307A, V430L
# light: not shown
# notes: EU numbering; copies: 2 + 2
# B6: IgG1-F367 (antibody)
# heavy: B1 heavy with S241K, M254Y, V259P, E260H, D272F, V310P, Q313A, V430M
# light: not shown
# notes: EU numbering; copies: 2 + 2
# B7: IgG1-F368 (antibody)
# heavy: B1 heavy with S241K, M254Y, V259P, D272F, Q309T, V310P, N327G, E384A, V430I
# light: not shown
# notes: EU numbering; copies: 2 + 2
# B8: IgG1-F369 (antibody)
# heavy: B1 heavy with M254Y, V430I
# light: not shown
# notes: EU numbering; copies: 2 + 2
# B9: IgG1-F372 (antibody)
# heavy: B1 heavy with S241K, M254W, V259P, Q309T, V310P, V430Y
# light: not shown
# notes: EU numbering; copies: 2 + 2
# B10: IgG1-F373 (antibody)
# heavy: B1 heavy with S241K, M254W, V259P, Q309T, V310P, Q313A, V430Y
# light: not shown
# notes: EU numbering; copies: 2 + 2
# B11: IgG1-F374 (antibody)
# heavy: B1 heavy with S241K, M254W, T258E, V259P, Q309T, V310P, V430Y
# light: not shown
# notes: EU numbering; copies: 2 + 2
# B12: IgG1-F375 (antibody)
# heavy: B1 heavy with S241K, M254W, V259P, N288E, Q309T, V310P, V430Y
# light: not shown
# notes: EU numbering; copies: 2 + 2
# B13: IgG1-F376 (antibody)
# heavy: B1 heavy with S241K, M254Y, T258E, V259P, D272F, N288E, Q309T, V310P, V430M
# light: not shown
# notes: EU numbering; copies: 2 + 2
# B14: IgG1-F377 (antibody)
# heavy: B1 heavy with S241K, M254W, V259P, Q309P, V430Y
# light: not shown
# notes: EU numbering; copies: 2 + 2
# B15: IgG1-F379 (antibody)
# heavy: B1 heavy with S241K, M254W, T258E, V259P, Q309T, V310P, Q313A, V430Y
# light: not shown
# notes: EU numbering; copies: 2 + 2
# B16: IgG1-F380 (antibody)
# heavy: B1 heavy with S241K, M254W, T258E, V259P, N288E, Q309T, V310P, V430Y
# light: not shown
# notes: EU numbering; copies: 2 + 2
# B17: IgG1-F381 (antibody)
# heavy: B1 heavy with Q309A, Q313A, V430L
# light: not shown
# notes: EU numbering; copies: 2 + 2
# B18: IgG1-F386 (antibody)
# heavy: B1 heavy with M254Y, V259P, Q309T, V310P, L311E, V430M
# light: not shown
# notes: EU numbering; copies: 2 + 2
# B19: IgG1-F387 (antibody)
# heavy: B1 heavy with M254Y, V259P, Q309T, V310P, L311D, V430M
# light: not shown
# notes: EU numbering; copies: 2 + 2
# B20: IgG1-F388 (antibody)
# heavy: B1 heavy with M254Y, V259P, Q309T, V310P, L311A, V430M
# light: not shown
# notes: EU numbering; copies: 2 + 2
# B21: IgG1-F389 (antibody)
# heavy: B1 heavy with M254W, V259P, Q309T, V310P, L311E, V430Y
# light: not shown
# notes: EU numbering; copies: 2 + 2
# B22: IgG1-F390 (antibody)
# heavy: B1 heavy with M254W, V259P, Q309T, V310P, L311D, V430Y
# light: not shown
# notes: EU numbering; copies: 2 + 2
# B23: IgG1-F391 (antibody)
# heavy: B1 heavy with M254W, V259P, Q309T, V310P, L311A, V430Y
# light: not shown
# notes: EU numbering; copies: 2 + 2
# B24: IgG1-F392 (antibody)
# heavy: B1 heavy with S241K, M254Y, V259P, N288E, Q309T, V310P, V430I
# light: not shown
# notes: EU numbering; copies: 2 + 2
# B25: IgG1-F394 (antibody)
# heavy: B1 heavy with S241K, M254Y, V259P, Q313A, V430I
# light: not shown
# notes: EU numbering; copies: 2 + 2
# B26: IgG1-F395 (antibody)
# heavy: B1 heavy with S241K, M254Y, T258E, V259P, Q309T, V310P, V430M
# light: not shown
# notes: EU numbering; copies: 2 + 2
# B27: IgG1-F396 (antibody)
# heavy: B1 heavy with S241K, M254Y, V259P, D272F, N288E, Q313A, V430I
# light: not shown
# notes: EU numbering; copies: 2 + 2
# B28: IgG1-F397 (antibody)
# heavy: B1 heavy with S241K, M254Y, V259P, D272F, Q313A, P389E, V430I
# light: not shown
# notes: EU numbering; 'T370Q' as printed, probably T307Q; copies: 2 + 2
# B29: IgG1-F399 (antibody)
# heavy: B1 heavy with S241K, M254Y, V259P, D272F, N288E, V310P, V430I
# light: not shown
# notes: EU numbering; copies: 2 + 2
# B30: IgG1-F400 (antibody)
# heavy: B1 heavy with S241K, M254Y, V259P, D272F, N288E, Q309T, V310P, Q313A, V430I
# light: not shown
# notes: EU numbering; copies: 2 + 2
# B31: IgG1-F401 (antibody)
# heavy: B1 heavy with S241K, M254Y, V259P, D272F, N288E, Q309T, V310P, P389E, V430I
# light: not shown
# notes: EU numbering; 'N431Y' as printed, probably N434Y; copies: 2 + 2
# B32: IgG1-F402 (antibody)
# heavy: B1 heavy with V430L, Y436W
# light: not shown
# notes: EU numbering; copies: 2 + 2
# B33: IgG1-F403 (antibody)
# heavy: B1 heavy with Q309A, V430L, Y436W
# light: not shown
# notes: EU numbering; copies: 2 + 2
# B34: IgG1-F404 (antibody)
# heavy: B1 heavy with V259A, L311P, V430L
# light: not shown
# notes: EU numbering; 'M928L' read as M428L; copies: 2 + 2
# B35: IgG1-F405 (antibody)
# heavy: B1 heavy with L311P, V430L
# light: not shown
# notes: EU numbering; copies: 2 + 2
# B36: IgG1-F406 (antibody)
# heavy: B1 heavy with V259A, L311R, V430L
# light: not shown
# notes: EU numbering; copies: 2 + 2
# B37: IgG1-F407 (antibody)
# heavy: B1 heavy with L311R, V430L
# light: not shown
# notes: EU numbering; copies: 2 + 2
# B38: IgG1-F408 (antibody)
# heavy: B1 heavy with N288E, Q309T, V430L
# light: not shown
# notes: EU numbering; copies: 2 + 2
# B39: IgG1-F409 (antibody)
# heavy: B1 heavy with Q309T, P389E, V430L
# light: not shown
# notes: EU numbering; copies: 2 + 2
# B40: IgG1-F410 (antibody)
# heavy: B1 heavy with Q309H, V430L
# light: not shown
# notes: EU numbering; copies: 2 + 2
# B41: IgG1-F411 (antibody)
# heavy: B1 heavy with Q309N, V430L
# light: not shown
# notes: EU numbering; copies: 2 + 2
# B42: IgG1-F412 (antibody)
# heavy: B1 heavy with Q309G, V430L
# light: not shown
# notes: EU numbering; copies: 2 + 2
# Target: T1, human FcRn (soluble human FcRn complexed with β2-microglobulin) (human, UniProt P61769 21-119, limits assumed)
# T1 construct: also called hFcRn
# Assay: SPR, pH 7.0;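 also: antibodies captured on a Protein L sensor chip with human FcRn injected as analyte, KD calculated from fitted association and dissociation rate constants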
row,Kd [nM],Binder
1,1300,B1
2,54,B2
3,41,B3
4,35,B4
5,51,B5
6,15,B6
7,20,B7
8,75,B8
9,13,B9
10,11,B10
11,12,B11
12,5.5,B12
13,9.6,B13
14,130,B14
15,9,B15
16,5.6,B16
17,110,B17
18,32,B18
19,150,B19
20,70,B20
21,17,B21

row,Kd [nM],Binder
1,68,B22
2,36,B23
3,6.9,B24
4,53,B25
5,24,B26
6,20,B27
7,45,B28
8,6.5,B29
9,6.1,B30
10,6.9,B31
11,23,B32
12,51,B33
13,94,B34
14,170,B35
15,150,B36
16,160,B37
17,250,B38
18,200,B39
19,220,B40
20,130,B41
21,88,B42
